In the nanobody polyreactivity screen of Harvey et al. (2022):

Assay: yeast display, Sf9 membrane polyspecificity reagent, FACS + sequencing; frameworks hold sequencing errors
Outline: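 After 36–48 hours of galactose induction, yeast (Saccharomyces cerevisiae BJ5465) displaying a synthetic nanobody library were stained at 4 °C for 1 hour with 10% biotinylated, detergent-solubilized Sf9 membrane reagent. Streptavidin microbeads enriched the stained cells before FACS sorting into low and high (top ~1%) gates on anti-HA and streptavidin fluorescence. Each clone's polyreactivity label reflects its gate of origin.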

## QVQLVESGGGLVQAGGSLRLSCAASGGIFYDYTMGWYRQAPGKERELVAVISSSGSTYYADSVKGRFTISRDNAKNTVYLLMNSLKPEDTAVYYCNALGWYGDYDYWGQGTQVTVSS
  polyreactivity (PSR sort gate): low polyreactivity

## QVQLVESGGGLVQAGGSLRLSCAASGGIFYGYAMGWYRQAPGKERELVASISSDDRTNNADSVKGRFTISRDNAKNTVYLQMNSLKPEDTAVYSCNAELGSDTSNFDYWGQGTQVTVSS
  polyreactivity (PSR sort gate): low polyreactivity

## QVQLVESGGGLVQAGGSLRLSCAASGGIFYSNAMGWYRPAPGKERELVAAISRDGTITYYADSVKGRFTISRDNAKNTVYLQMNSLKPEDTAVYYCAADASIQSWYSIYDYWGQGTQVTVSS
  polyreactivity (PSR sort gate): high polyreactivity

## QVQLVESGGGLVQAGGSLRLSCAASGGIFYSYAMGWYRQAPGKEREFVAAIRRSGGRTYYADSVKGRFTISRDNAKNTVYLQMNSLKPEDTAVYYCAADGWYSGGHDYWGQGTQVTVSS
  polyreactivity (PSR sort gate): high polyreactivity

## QVQLVESGGGLVQAGGSLRLSCAASGGIIEDNMGWYRQAPGKERELVAAIDLRADSTYYADSVKGRFTISRDNAKNTVYLQMNSLKPEDTAVYYCAAGARQGVYRGGDYWGQGTQVTVSS
  polyreactivity (PSR sort gate): low polyreactivity

## QVQLVESGGGLVQAGGSLRLSCAASGGIILPYAMGWYRQAPGKERELVAAISGRTGSTNYADSVKGRFTISRDNAKNTVYLQMNSLKPEDTAVYYCAARGVRSYFFPYNYWGQGTQVTVSS
  polyreactivity (PSR sort gate): high polyreactivity

## QVQLVESGGGLVQAGGSLRLSCAASGGIIQGYSMVWYRQAPGKERELVAAISSSGGTTYYADSVKGRFTISRDNAKNTVYLQMNSLKPEDTAVYYCAAPTHSPYDYWGQGTQVTVSS
  polyreactivity (PSR sort gate): low polyreactivity

## QVQLVESGGGLVQAGGSLRLSCAASGGIIRVYVMGWSRQAPGKERELVAAISRRGGSTYYADSVKGRFTISRDNAKNTVYLQMNSLKPEDTAVYYCAAAVRPRANTTYQRPRYYYWGQGTQVTVSS
  polyreactivity (PSR sort gate): high polyreactivity

## QVQLVESGGGLVQAGGSLRLSCAASGGILRQNTMGWYRQAPGKERELVAAISSSGGRTYYADSVKGRFTISRDNAKNTVYLQMNSLKPEDTAVYYCNVPAKRYPYYIRQSTVYPGNYWGQGTQVTVSS
  polyreactivity (PSR sort gate): high polyreactivity

## QVQLVESGGGLVQAGGSLRLSCAASGGILVFYALGWYRQSPGKERELVAAINVSGGSTYYADSVKGRFTISRDNAKNTVYLQMNSLKPEDTAVYYCAALGPYLDYGVQYGYWGQGTQVTVSS
  polyreactivity (PSR sort gate): low polyreactivity

## QVQLVESGGGLVQAGGSLRLSCAASGGILVGYAMGWYRQAPGKERELVAAINYSGGSTNYADSVKGRFTISRDNAKNTVYLQMNSLKPVDTAVYYCAARSTARYGYWGQGTQVTVSS
  polyreactivity (PSR sort gate): low polyreactivity

## QVQLVESGGGLVQAGGSLRLSCAASGGILWGNGMGWYRQAPGKERELVAAISTGGSTNYADSVKGRFTISRDNAKNTVYLQMNSLKPEETAVYYCAGGAGGVRYSFYWNDYWGQGTQVTVSS
  polyreactivity (PSR sort gate): high polyreactivity

## QVQLVESGGGLVQAGGSLRLSCAASGGISTAYTMGWYRQAPGKERELVADITRSGGRTYYADSVKGRFTISRDNAKNTVYLQMNSLKPEDTAVYYCARTYYYRFNYWGQGTQVTVSS
  polyreactivity (PSR sort gate): high polyreactivity

## QVQLVESGGGLVQAGGSLRLSCAASGGLFYYNAMGWYRQAPGKERELVAAISGSGGTTYYADSVKGRFTISRDNAKNTVYLQMNSLKPEDTAVYYCAKRPYTVIAYSRYGYWGQGTQVTVSS
  polyreactivity (PSR sort gate): high polyreactivity

## QVQLVESGGGLVQAGGSLRLSCAASGGMGWYRQAPGKERELVATISSVGSTNYADSVKGRFTISRDNAKNTVYLQMNSLKPEDTAVYYCNDTGVQYFLYAYWGQGTQVTVSS
  polyreactivity (PSR sort gate): low polyreactivity

## QVQLVESGGGLVQAGGSLRLSCAASGGMGWYRQAPGKERELVATISSVGSTNYADSVKGRFTISRDNAKNTVYLQRNSLKPEVTAVYYCNATGVQYFLYGYWGQGTQVTVSS
  polyreactivity (PSR sort gate): low polyreactivity

## QVQLVESGGGLVQAGGSLRLSCAASGGNFGRYAMGWYRQAPGKERELVADINWSGGANTNYADSVKGRFTISRDNAKNTVYLQMNSLKPEDTAVYYCAAPSYFTHSGRFDYWGQGTQVTVSS
  polyreactivity (PSR sort gate): low polyreactivity

## QVQLVESGGGLVQAGGSLRLSCAASGGPFFYYAMGWYRAAPGKAREWVAAITWSATDTYYADSVKGRFTISRDNAKNTVYIQMNSLKPEDTAVYYCNAAPIGSEVDYGGQGTQVTVSS
  polyreactivity (PSR sort gate): low polyreactivity

## QVQLVESGGGLVQAGGSLRLSCAASGGSFNNYAMGWYRQAPGKERELVAAITYSGVRTNYADSVKGRFTISRDNAKNTVYLQMNSLKPEDTAVYYCAADGLSNVRQMDYWGQGTQVTVSS
  polyreactivity (PSR sort gate): low polyreactivity

## QVQLVESGGGLVQAGGSLRLSCAASGGTFALYAMGWYRQAPGKERELVASISFNGGSTYYADSVKGRFTISRDTAKNTVYLQMNSLKPEDTAVYYCNTGYQWGVYESQTAEEDYWGQGTQVTVSS
  polyreactivity (PSR sort gate): low polyreactivity

## QVQLVESGGGLVQAGGSLRLSCAASGGTFAWYAMGWYRQAPGKERELVAAITSDGNTDYADSVKGRFTISRDNAKNTVYLQMNSLKPEDTAVYYCAADVQWRSAYDYTMGYWGQGTQVTVSS
  polyreactivity (PSR sort gate): low polyreactivity

## QVQLVESGGGLVQAGGSLRLSCAASGGTFDSNAMGWYRQAPGKERELVAAISSGGSTYYADSVKGRFTISRDNAKNTVYLQMNSLKPEDTAVYYCAADSSGGASAPMDYWGQGTQVTVSS
  polyreactivity (PSR sort gate): low polyreactivity

## QVQLVESGGGLVQAGGSLRLSCAASGGTFDSYVMGWYRQAPGKERELVAAITWSGGSTYYAESVKGRFTISRDNAKNTVYLQMNSLKPEDTAVYYCNNGGSTTYAYDYWGQGTQVTVSS
  polyreactivity (PSR sort gate): low polyreactivity

## QVQLVESGGGLVQAGGSLRLSCAASGGTFDTYAMGWYRQAPGKERELVAGIDWSGGSTYYADSVKGRFTISRDNAKNTVYLQMNSLKPEDTAVYYCAADYYYPSQMDYWGQGTQVTVSS
  polyreactivity (PSR sort gate): low polyreactivity

## QVQLVESGGGLVQAGGSLRLSCAASGGTFDTYAMGWYRQAPGKERELVAGIDWSGGSTYYADSVKGRFTISRDYAKNTVYLQMNSLKPEDTAVYYCAADFYYPSQMDYWGQGTQVTVSS
  polyreactivity (PSR sort gate): low polyreactivity

## QVQLVESGGGLVQAGGSLRLSCAASGGTFDVYTMGWYRQAPGKERELVAVISSSGGGTYYADSVKGRFTISRDNAKNTVYLQMNSLKPEDTAVYYCAARRKRQNTYYPYYYWGQGTQVTVSS
  polyreactivity (PSR sort gate): high polyreactivity

## QVQLVESGGGLVQAGGSLRLSCAASGGTFDWNTMGWYRQAPGKERELVASITSGGRTNYADSVKGRFTISRDNAKNTVYLQMNSLKPEDTAVYYCAKYRRSAYPWQTWVGQKFDYWGQGTQVTVSS
  polyreactivity (PSR sort gate): low polyreactivity

## QVQLVESGGGLVQAGGSLRLSCAASGGTFERNAMGWYRQAPGKERELVAAITGSGGRTYYADSVKGRFTISRDNAKNTVYLHMNSLKPEDTAVYYCAAVPWWKYNYWGQGTQVTVSS
  polyreactivity (PSR sort gate): high polyreactivity

## QVQLVESGGGLVQAGGSLRLSCAASGGTFFENAMGWDRQAPGKERELVAAISSSGASTYYADSVKGRFTISRDNAKNTVYLQMNSLKPEDTAVYYCNAGQRVRSTLYDYWGQGTQVTVSS
  polyreactivity (PSR sort gate): high polyreactivity

## QVQLVESGGGLVQAGGSLRLSCAASGGTFFGYAMGWYRPAPGKERELVAAISGSGGRTYYADSVKGRFTISRDNAKNTVYLQMNSLKPEDTAVYYCAADATHETYYPFYYWGQGTQVTVSS
  polyreactivity (PSR sort gate): high polyreactivity

## QVQLVESGGGLVQAGGSLRLSCAASGGTFFSYTKGWYRQAPGKERELVAAITWSGASTYYADSVKGRFTISRDNAKNTVYIQMNSLKPEDTAVYYCAADSYDSPGYLTTSTYRLDYWGQGTHVTVSS
  polyreactivity (PSR sort gate): low polyreactivity

## QVQLVESGGGLVQAGGSLRLSCAASGGTFFYNAMGWYRQAPGKERELVAAINGGTSTNYADSVKGRFTISRDNAKNTVYLQMNSLKPEDTAVYYCAAVYRRLGRYDWYDYWGQGTQVTVSS
  polyreactivity (PSR sort gate): low polyreactivity

## QVQLVESGGGLVQAGGSLRLSCAASGGTFGSYAMGWYRQAPGKERELVAAIRSGDRTYYADSVKGRFTISRDNAKNTVYLQMNSLKPEDTAVYYCNADGYARFRTYYSRDTREYDYWGQGTQVTVSS
  polyreactivity (PSR sort gate): low polyreactivity

## QVQLVESGGGLVQAGGSLRLSCAASGGTFGSYAMGWYRQAPGKERELVAAITGSGGRTYYADSVKGRFTISRDNAKNTVYLQMNSLKPEDTAVYYCNATRGIGPPFYYWGQGTKVTVSS
  polyreactivity (PSR sort gate): high polyreactivity

## QVQLVESGGGLVQAGGSLRLSCAASGGTFGTNAMGWYRQAPGKERELVATIRTSVGSTYYADSVKGRFTISRDNAKNTVYLQMNSVKPEDTAVYYCAAGVPKNGQAGYDYWGQGTQVTVSS
  polyreactivity (PSR sort gate): high polyreactivity

## QVQLVESGGGLVQAGGSLRLSCAASGGTFGVNAMGWYRQAPGKERELVAAISSSGGRTYYADSVKGRFTISRDNAKNTVFLQMNSLKPEDTAVYYCAARNYFWGQGTQVTVSS
  polyreactivity (PSR sort gate): low polyreactivity

## QVQLVESGGGLVQAGGSLRLSCAASGGTFGYNAMGWYRQAPGKERELVAAITGGGRTYYADSVKGRFTISRDNAKNTVYLQMNSLKPEDTAVYYCNADYAYYSYDYWGQGTQVTVSS
  polyreactivity (PSR sort gate): low polyreactivity

## QVQLVESGGGLVQAGGSLRLSCAASGGTFGYYAMGWYRQAPGKDRELVAGINYSGGRTYYADSVKGRFTISRDNAKNTVYLQMNSLKPEDTAVYYCAAQAYVGYRGYDYWGQGTQVTVSS
  polyreactivity (PSR sort gate): high polyreactivity

## QVQLVESGGGLVQAGGSLRLSCAASGGTFHYYAMGWYRQAPGKERELVAAISWSGGSTYYADSVKGRFTISRDNAKNTVYLQMNSLKPEDTAVYYCAAETYPYLFHTYDYWGQGTQVTVSS
  polyreactivity (PSR sort gate): low polyreactivity

## QVQLVESGGGLVQAGGSLRLSCAASGGTFINYAMGWYRQAPGKERELVAGISQSGDSTYYADSVKGRFTISRDNAKNTVYLQMNSLKPEDTAVYYCNADAVAQQYDWWENYDYWGQGTQVTVSS
  polyreactivity (PSR sort gate): high polyreactivity

## QVQLVESGGGLVQAGGSLRLSCAASGGTFIRYAMALYRQAPGKERELVADITSSGDSTYYADSVKGRFTISRDNAKNTVYLPMNSLITEDTAVYYCATTHDYWLWGMGYWGQGTQVTVSS
  polyreactivity (PSR sort gate): high polyreactivity

## QVQLVESGGGLVQAGGSLRLSCAASGGTFKTYVMGWSRQEPGKERELVAVISGSGASTYYADSVKGRFTISRDNAKNTVYLQMNSLKPEDTAVYYCAARYAWGWSGYYYWGQGTQVTVSS
  polyreactivity (PSR sort gate): high polyreactivity

## QVQLVESGGGLVQAGGSLRLSCAASGGTFKYYAMGWYRQAPGKERELVADITSGGSTNYADYVKGRFTISRDNAKNTVYLQMNSLKPEDTAVYYCAKRRYWVKYDYWGQGTQVTVSS
  polyreactivity (PSR sort gate): high polyreactivity
